B1: Antibody 63 (antibody, V domains shown)
VH: QVQLQESGPGLVKPSGTLSLTCAVSGGSISSSNWWSWVRQPPGKGLEWIGEIYHYGYTNYNPSLKSRVTISVDKSKNQFSLKLSSVTAADTAVYYCAREGIGWPSFDYWGQGTLVTVSS
VL: SSELTQDPAASVALGQTVRITCQGDTLRNYYASWYQQKPGQAPILVIYGKNNRPSGIPDRFSGSSSGNTASLTITGAQAEDEADYYCNSRDSSGKNLVFGGGTKLTVL
B2: Antibody 65 (antibody, V domains shown)
VH: QVQLQESGPGLVKPSGTLSLTCAVSGGSISSSNWWSWVRQPPGKGLEWIGEIYHYGYTNYNPSLKSRVTISVDKSKNQFSLKLSSVTAADTAVYYCAREGIGWPSFDYWGQGTLVTVSS
VL: SSELTQDPAASVALGQTVRITCQGDTLRNYYASWYQQKPGQAPILVIYGKNNRPSGIPDRFSGSSSGNTASLTITGAQAEDEADYYCNSRESSGKNLVFGGGTKLTVL
B3: Antibody 73 (antibody, V domains shown)
VH: QVQLQESGPGLVKPSGTLSLTCAVSGGSISSSNWWSWVRQPPGKGLEWIGEIYHYGYTNYNPSLKSRVTISVDKSKNQFSLKLISVTAADTAVYYCAREGIGWPSFDYWGQGTLVTVSS
VL: SSELTQDPAASVALGQTVRITCQGDTLRSYYASWYQQKPGQAPILVIYGKNNRPSGIPDRFSGSSSGNTASLTITGAQAEDEADYYCNSRDSSGKNLVFGGGTKLTVL
B4: Antibody 69 (antibody, V domains shown)
VH: QVQLQESGPGLVKPSGTLSLTCAVSGGSISSSNWWSWVRQPPGKGLEWIGEIYHYGYTNYNPSLKSRVTISVDKSKNQFSLKLSSVTAADTAVYYCAREGIGWPSFDYWGQGTLVTVSS
VL: SSELTQDPAASVALGQTVRITCQGDTLRSYYASWYQQKPGQAPILVIYGKNNRPSGIPDRFSGSSSGNTASLTITGAQAEDEADYYCNSRESSGKNLVFGGGTKLTVL
B5: Antibody 68 (antibody, V domains shown)
VH: QVQLQESGPGLVKPSGTLSLTCAVSGGSISSSNWWSWVRQPPGKGLEWIGEIYHYGYTNYNPSLKSRVTISVDKSKNQFSLKLSSVTAADTAVYYCAREGIGWPSFDYWGQGTLVTVSS
VL: SSELTQDPAASVALGQTVRITCQGDTLRNYYASWYQQKPGQAPILVIYGKNNRPSGIPDRFSGSSSGNTASLTITGAQAEDEADYYCNSRDFSGKNLVFGGGTKLTVLG
B6: Antibody 78 (antibody, V domains shown)
VH: QVQLQESGPGLVKPSGTLSLTCAVSGGSISSSNWWSWVRQPPGKGLEWIGEIYHYGYTNYNPSLKSRVTISVDKSKNQFSLKLISVTAADTAVYYCAREGIGWPSFDYWGQGTLVTVSS
VL: SSELTQDPAASVALGQTVRITCQGDTLRSYYASWYQQKPGQAPILVIYGKNNRPSGIPDRFSGSSSGNTASLTITGAQAEDEADYYCNSRESSGKNLVFGGGTKLTVL
B7: Antibody 71 (antibody, V domains shown)
VH: QVQLQESGPGLVKPSGTLSLTCAVSGGSISSSNWWSWVRQPPGKGLEWIGEIYHYGYTNYNPSLKSRVTISVDKSKNQFSLKLSSVTAADTAVYYCAREGIGWPSFDYWGQGTLVTVSS
VL: SSELTQDPAASVALGQTVRITCQGDTLRSYYASWYQQKPGQAPILVIYGKNNRPSGIPDRFSGSSSGNTASLTITGAQAEDEADYYCNSRDESGKNLVFGGGTKLTVL
B8: Antibody 76 (antibody, V domains shown)
VH: QVQLQESGPGLVKPSGTLSLTCAVSGGSISSSNWWSWVRQPPGKGLEWIGEIYHYGYTNYNPSLKSRVTISVDKSKNQFSLKLISVTAADTAVYYCAREGIGWPSFDYWGQGTLVTVSS
VL: SSELTQDPAASVALGQTVRITCQGDTLRNYYASWYQQKPGQAPILVIYGKNNRPSGIPDRFSGSSSGNTASLTITGAQAEDEADYYCNSRDESGKNLVFGGGTKLTVL
B9: Antibody 74 (antibody, V domains shown)
VH: QVQLQESGPGLVKPSGTLSLTCAVSGGSISSSNWWSWVRQPPGKGLEWIGEIYHYGYTNYNPSLKSRVTISVDKSKNQFSLKLISVTAADTAVYYCAREGIGWPSFDYWGQGTLVTVSS
VL: SSELTQDPAASVALGQTVRITCQGDTLRNYYASWYQQKPGQAPILVIYGKNNRPSGIPDRFSGSSSGNTASLTITGAQAEDEADYYCNSRESSGKNLVFGGGTKLTVL
B10: Antibody 67 (antibody, V domains shown)
VH: QVQLQESGPGLVKPSGTLSLTCAVSGGSISSSNWWSWVRQPPGKGLEWIGEIYHYGYTNYNPSLKSRVTISVDKSKNQFSLKLSSVTAADTAVYYCAREGIGWPSFDYWGQGTLVTVSS
VL: SSELTQDPAASVALGQTVRITCQGDTLRNYYASWYQQKPGQAPILVIYGKNNRPSGIPDRFSGSSSGNTASLTITGAQAEDEADYYCNSRDESGKNLVFGGGTKLTVL
B11: Antibody 77 (antibody, V domains shown)
VH: QVQLQESGPGLVKPSGTLSLTCAVSGGSISSSNWWSWVRQPPGKGLEWIGEIYHYGYTNYNPSLKSRVTISVDKSKNQFSLKLISVTAADTAVYYCAREGIGWPSFDYWGQGTLVTVSS
VL: SSELTQDPAASVALGQTVRITCQGDTLRNYYASWYQQKPGQAPILVIYGKNNRPSGIPDRFSGSSSGNTASLTITGAQAEDEADYYCNSRDFSGKNLVFGGGTKLTVL
B12: Antibody 75 (antibody, V domains shown)
VH: QVQLQESGPGLVKPSGTLSLTCAVSGGSISSSNWWSWVRQPPGKGLEWIGEIYHYGYTNYNPSLKSRVTISVDKSKNQFSLKLISVTAADTAVYYCAREGIGWPSFDYWGQGTLVTVSS
VL: SSELTQDPAASVALGQTVRITCQGDTLRNYYASWYQQKPGQAPILVIYGKNNRPSGIPDRFSGSSSGNTASLTITGAQAEDEADYYCNSRDLSGKNLVFGGGTKLTVL
B13: Antibody 66 (antibody, V domains shown)
VH: QVQLQESGPGLVKPSGTLSLTCAVSGGSISSSNWWSWVRQPPGKGLEWIGEIYHYGYTNYNPSLKSRVTISVDKSKNQFSLKLSSVTAADTAVYYCAREGIGWPSFDYWGQGTLVTVSS
VL: SSELTQDPAASVALGQTVRITCQGDTLRNYYASWYQQKPGQAPILVIYGKNNRPSGIPDRFSGSSSGNTASLTITGAQAEDEADYYCNSRDLSGKNLVFGGGTKLTVLG
B14: Antibody 72 (antibody, V domains shown)
VH: QVQLQESGPGLVKPSGTLSLTCAVSGGSISSSNWWSWVRQPPGKGLEWIGEIYHYGYTNYNPSLKSRVTISVDKSKNQFSLKLSSVTAADTAVYYCAREGIGWPSFDYWGQGTLVTVSS
VL: SSELTQDPAASVALGQTVRITCQGDTLRSYYASWYQQKPGQAPILVIYGKNNRPSGIPDRFSGSSSGNTASLTITGAQAEDEADYYCNSRDFSGKNLVFGGGTKLTVL
B15: Antibody 80 (antibody, V domains shown)
VH: QVQLQESGPGLVKPSGTLSLTCAVSGGSISSSNWWSWVRQPPGKGLEWIGEIYHYGYTNYNPSLKSRVTISVDKSKNQFSLKLISVTAADTAVYYCAREGIGWPSFDYWGQGTLVTVSS
VL: SSELTQDPAASVALGQTVRITCQGDTLRSYYASWYQQKPGQAPILVIYGKNNRPSGIPDRFSGSSSGNTASLTITGAQAEDEADYYCNSRDESGKNLVFGGGTKLTVL
B16: Antibody 81 (antibody, V domains shown)
VH: QVQLQESGPGLVKPSGTLSLTCAVSGGSISSSNWWSWVRQPPGKGLEWIGEIYHYGYTNYNPSLKSRVTISVDKSKNQFSLKLISVTAADTAVYYCAREGIGWPSFDYWGQGTLVTVSS
VL: SSELTQDPAASVALGQTVRITCQGDTLRSYYASWYQQKPGQAPILVIYGKNNRPSGIPDRFSGSSSGNTASLTITGAQAEDEADYYCNSRDFSGKNLVFGGGTKLTVL
B17: Antibody 79 (antibody, V domains shown)
VH: QVQLQESGPGLVKPSGTLSLTCAVSGGSISSSNWWSWVRQPPGKGLEWIGEIYHYGYTNYNPSLKSRVTISVDKSKNQFSLKLISVTAADTAVYYCAREGIGWPSFDYWGQGTLVTVSS
VL: SSELTQDPAASVALGQTVRITCQGDTLRSYYASWYQQKPGQAPILVIYGKNNRPSGIPDRFSGSSSGNTASLTITGAQAEDEADYYCNSRDLSGKNLVFGGGTKLTVL
B18: Antibody 64 (antibody, V domains shown)
VH: QVQLQESGPGLVKPSGTLSLTCAVSGGSISSSNWWSWVRQPPGKGLEWIGEIYHYGYTNYNPSLKSRVTISVDKSKNQFSLKLSSVTAADTAVYYCAREGIGWPSFDYWGQGTLVTVSS
VL: SSELTQDPAASVALGQTVRITCQGDTLRSYYASWYQQKPGQAPILVIYGKNNRPSGIPDRFSGSSSGNTASLTITGAQAEDEADYYCNSRDSSGKNLVFGGGTKLTVLG

Biological target: human IL-15 complexed with the IL-15 Receptor-alpha (human, UniProt P40933 49-162)
Assay: cell-based or functional assay

Chain of human IL-15 complexed with the IL-15 Receptor-alpha (P40933 49-162 limits assumed, chain 1 of 2): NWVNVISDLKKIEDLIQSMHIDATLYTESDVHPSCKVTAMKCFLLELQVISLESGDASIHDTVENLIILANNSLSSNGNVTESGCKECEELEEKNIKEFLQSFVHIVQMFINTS
Chain of human IL-15 complexed with the IL-15 Receptor-alpha (chain, as listed by the source limits assumed, chain 2 of 2): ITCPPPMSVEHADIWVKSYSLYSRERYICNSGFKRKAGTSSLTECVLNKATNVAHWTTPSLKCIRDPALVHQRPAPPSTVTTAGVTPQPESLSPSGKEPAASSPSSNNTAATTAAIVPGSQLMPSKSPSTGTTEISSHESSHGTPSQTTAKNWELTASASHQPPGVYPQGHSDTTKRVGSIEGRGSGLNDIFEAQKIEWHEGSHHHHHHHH

Row | Binder | IC 50 (NK-92) in pM [pM]
1 | B1 | 4.21
2 | B2 | 42.5
3 | B3 | 11.8
4 | B4 | 162
5 | B5 | 5.34
6 | B6 | 168
7 | B7 | 26.4
8 | B8 | 7.69
9 | B9 | 33.9
10 | B10 | 7.69
11 | B11 | 5.69
12 | B12 | 3.14
13 | B13 | 6.04
14 | B14 | 20.9
15 | B15 | 22.8
16 | B16 | 17.3
17 | B17 | 12.4
18 | B18 | 13.6

— patent US20200270339A1 (CEPHALON, published 2020)
